Molecular target: histone deacetylase 1 (HDAC1), endogenous mouse (mouse (endogenous in C3H10T1/2 and STO)) (UniProt O09106)
Sequence of UniProt O09106 (O09106 whole entry): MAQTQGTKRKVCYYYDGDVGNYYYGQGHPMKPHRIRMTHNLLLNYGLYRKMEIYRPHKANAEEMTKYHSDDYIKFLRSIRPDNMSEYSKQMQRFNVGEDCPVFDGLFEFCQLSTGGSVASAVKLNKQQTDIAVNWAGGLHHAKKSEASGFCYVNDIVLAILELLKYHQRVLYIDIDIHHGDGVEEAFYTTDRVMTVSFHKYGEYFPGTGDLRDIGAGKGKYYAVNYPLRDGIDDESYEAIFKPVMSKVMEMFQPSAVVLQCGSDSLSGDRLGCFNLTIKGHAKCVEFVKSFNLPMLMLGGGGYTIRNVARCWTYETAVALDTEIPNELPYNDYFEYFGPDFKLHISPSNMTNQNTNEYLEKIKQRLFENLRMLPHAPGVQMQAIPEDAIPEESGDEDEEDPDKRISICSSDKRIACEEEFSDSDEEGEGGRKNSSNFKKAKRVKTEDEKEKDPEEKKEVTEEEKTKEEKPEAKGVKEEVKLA

fold increase in AXIN2 message (Q-PCR) after treatment with the HDAC inhibitor TSA in C3H10T1/2^SS18-SSX1-V5 cells, compared to a 6 fold increase in C3H10T1/2^pLIVc: 3 fold
Substance: V5-tagged SS18-SSX1 fusion protein

From paper PMC4764983
